Experiment: yeast display, Sf9 membrane polyspecificity reagent, FACS + sequencing; frameworks hold sequencing errors
How it was run: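 In a synthetic yeast display library (Saccharomyces cerevisiae BJ5465), nanobody expression was induced with galactose for 36–48 hours. FACS gates were set low and high (top ~1%) using anti-HA fluorescence for expression and streptavidin fluorescence for binding of the Sf9 membrane reagent. Each polyreactivity label is drawn from the gate of origin.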

Sequence | polyreactivity (PSR sort gate)
QVQLVESVGGLVQAGGSLRLSCAASGSTFWTNAMGLYRQAPGKERELVATISKTTGRTYYADSVKGRFTISRDNAKNTVYLQMNSLKPEDTAVYYCAAEPYSWDTWVDYDYWGQGTQVTVSS | low polyreactivity
QVQLVESVGGLVQAGGSLRLSCAASGSTFYENTMGWYRQAPGKERELVAAISRSGVSTYYADSVKGRFTISRDNAKNTVYLQMNSLKPQDTAVYYCAAIVYRRYDYWGQGTQVTVSS | high polyreactivity
QVQLVESVGGLVQAGGSLRLSCAASGSTFYTYDMGWYRQAPGKERELVAAISRRDGITYYADSVKGRFTISRDNAKNTVYLQMNILKPEYTAVYYCAAEDAYLYYDFDYWGQGTQVTVSS | low polyreactivity
QVQLVESVGGLVQAGGSLRLSCAASGSTISLYKGWYRQAPGNETELVAAITYSGGRTYYADSVKGRFTISRDNAKNTVYLQMNSLKPEDTAVYYCATVFNDLTVYEYWSRFDYWGQGTQVTVSS | low polyreactivity
QVQLVESVGGLVQAGGSLRLSCAASGTIFGWYAMGWYRQAPGKEREMVATIDASGRSTFYADTVKGRFTISRDNAKNTVYLQMNSLKPEDTAVYYFNSRYPRQYWGGYDYWGQGTQVTVSS | low polyreactivity
QVQLVESVGGLVQAGGSLRLSCAASGYIFATNAMGWYRQAPGKERELVAAITRSGGRTYYADSVKGRFTISRDNAKNTVYLQMNSLKPEDTAVYYCAAARPTNIYYYWGQGTQVTVSS | high polyreactivity
QVQLVESVGGLVQAGGSLRLSCAAYGRIFAWYAMGWYIQAPGKERELVAVITSSDGSTHYADSVKGRFTISRDNAKNTVYLQMNSLKPEDTAVYYCNADSQRPRRSSTYWGQGTQVTVSS | low polyreactivity
QVQLVESVGGLVQAGGSLRLSCASSGSTFTYYAKVWYRQAPGKERELVAAISCTGTSTYYADSVKGRFTISRDNAKNTVYFQMNSLKPEDTAVYYSASTYRGYSGYKRRDYWGQGTQVTVSS | high polyreactivity
QVQLVESVGGLVQAGGSLRLSLAASGFTFWYYAMGWYRQAPGKERELVAVINTSGGSTYADSVKGRFTISRDNAKNTVYLQMNSLKPEDTAVYYCAAEGISTYPYDYCGQGTQVTVSS | low polyreactivity
QVQLVESVGGLVQAGGSLRLSSAASGIIFRRYPMVWYREPPGKDRELVAAISSGGRTYYADSGKGRFTISRDNAKNSVYLHMNSLKQEDTAVYYCAARWWYKNKYWGQGTQVTVSS | high polyreactivity
QVQLVESVGGLVQAGGSLRLSSAASGYTSNIYAMGWYRQAPGTERELVASIRGRSGSTYYADSVKGRFTISRDNAKNSVYLQMNSLKPEDTAVYYCAGSRPWDFYRFGFDYWGQGTQVTVSS | high polyreactivity
QVQLVESVGGLVQAGGSLSISCAASGRIFPRNAMGWYRPAPGKERELVAAISSGGGGTYYADSVKGRFTISRDNAKNTVYLQMNSQKPEDTAVYYCAAYVVRWWCDGDYWGQGTQVTVSS | high polyreactivity
QVQLVESVGGLVQAGGSLSLRCAASGLISRRNAMGWYRQAPGKERELVAAISTGSSTNYADSVKGRFTISRDNAKNTVYLQMNSLKTEDTAFYYCATDYLAGAPCEGHVEREYDYWGQGTQVTVSS | low polyreactivity
QVQLVESVGGLVQAGGTLRLSCAASGRIFCIYAMGWYRPAPGKVRSLVATITGSGGSTYYADSVKGRFTISRDNAKNTVYLQLHSLKPEDTAVYYCAARYPVSGGYDYWGQGNQVTVSS | low polyreactivity
QVQLVESVGGLVQAVGSLRLSCAASGFTFSDYAMGWYRHAPGKERELVAAISTRCSSTYYADSVKGRFTISRDIAKNNVYLQMNSLKPEDTAVYYCNAVGSYSGYYYWGQGTQVTVSS | high polyreactivity
QVQLVESVGGLVQVGGSLRLSCAASGSILTDYGMGWYRQAPGKERELVAAITGSGGSTYYADSVKGRFTISRDNAKNTVYLQMNSLKPEDTAVYYCAKRHVGSRYLFDYWGQGTQVTVSS | low polyreactivity
QVQLVESVRGLVQAGGSLRLSCAASGRIIYLNGMGSYRQAPGKERELVAAISSSDDSTYYAVSVKGRFTISRDNATNTVYLQLNSLKPEDTAVYYCAAGYHQVQNYGDAYYWSELYSWGQGTQVTVSS | low polyreactivity
QVQLVESVVGLVQAGGSLPISCAASGSTFSANDMVWYSQPHGTERELVAAIDTGGTTYYADSVKGRFTISRDNAKNTVYLQMNSLKPEYTAVYYCNATIWYRDYGYWVQGTQVTVSS | low polyreactivity
QVQLVESVVGLVQAGGSLRLSCAASGRIFAYYAMGWYRQAPGKERELVAAISSSGGGTYYADSVKGRFTISRDNAKNTVYLQMNSLKPEDTAVYYCAKRVRRKYSVSHPYDYWGQGTQVTVSS | high polyreactivity
QVQLVESVVGLVQAGVSLRLSCSASGFIFGRYAMGWYRQAPGKERELVADISWNGGSTYYADSVKGRFTISRDNAKNTVYLQMNSLKPEDTAVYYCAADYYWASFKYPYLRPYDYWGLGTQVTVSS | high polyreactivity
QVQLVESVVGLVQARGTLRLSGATTGNTFYKNTMRWYRQPHGKERELVAAISQRGTRTYYADSVQGRFTISRDYAKNTVYLQMNSLKPEDTAVYYCPTVMSQVGFDYWGQGTQVTVSS | high polyreactivity
QVQLVESWGALVQAGGSLRLSCAPSGSSKLMLWEGIDRRLGNKGSWLPLIVLVVLRNYADSVKGRFTISRDNAKNTLYLQMNSLKPDDTAVYYCAATPIGSGGWGDYWGQGTQVTLSS | low polyreactivity
QVQLVESWGGIVQAGGILRLSFAAYGRIFASNAMGWYRKAPGKERELVAGISRNGGSTFYEDSVKGRYTISRDTAKNTVYLQMISLKPDDTAVYYCARYYTHSGGYRDRIYYYWGQGTQVTVSS | low polyreactivity
QVQLVESWGGLVQAGGSLRISCAASGRTFPDYAMGWYRQAPGKERELVAAISSGGGTYYADSVKGRFTISRDNAKNTVFLQMNSLKPEDTAVYYCAATGVPGWVGFDYCGQGTQVTVSS | low polyreactivity
QVQLVESWGGLVQAGGSLRLICAASGSTFRDYFLGWYRRAPGKERELVATISGSGGSTYYADSVKGRFTISRDNAKNTVYLQMNSLKPEDTAFYYCAAVSVSSWYDYWGQGTQVTVSS | low polyreactivity
QVQLVESWGGLVQAGGSLRLRFAASVRTFVSNAMGWYRQAPGKERELVARITGSGGNTYYADSVKGRFTISRDNEKNTVYLQMNSLKPEDTAVYYCNSDVFRKFGSPSGYKSHRYDYWGQGTQVTVSS | low polyreactivity
QVQLVESWGGLVQAGGSLRLSCAASGFIFQTNVMGWYRQAPGKERELVAAISSGDSTYYADSVKGRFTISRDNAKNTVYLQMNSLKPEDTAVYYCAADVLGTTTTVGGFNYWGQGTQVTVSS | low polyreactivity
QVQLVESWGGLVQAGGSLRLSCAASGFTFRGYARGWYRQAPGKERELVAAISRSGGSTNFADSVKGRFTISRDNAKNTVYLQMNSLKPEDTAVYYCAAGWNPYDYWGQGTQVTVSS | high polyreactivity
QVQLVESWGGLVQAGGSLRLSCAASGFTYSQYVMGWYIQAPGKERELVASITGNGGSTRYADSVKGRFTISRDNAKNTVYLHMNSLKPEDTAVYYCAARYVYFRWGSFDYWGQGTQVTVSS | high polyreactivity
QVQLVESWGGLVQAGGSLRLSCAASGIIFRTYAMGWYRQAPWKERELVAAINSDGSTYYADSVKGRFTISRDNAKNTVYLQMNSLKPEDTAVYYCAATYGRSRKDGYWGQGTQVTVSS | high polyreactivity
